Test results as given in patent US20050261475A1.

Biological target: recombinant microtubule-associated protein Tau (Homo sapiens (Human)) (UniProt P10636)

For “purified active CDK5/p25 complex (enzyme)”, the in vitro phosphorylation, stoichiometry; MALDI-TOF MS of tryptic peptides (phosphates per Tau molecule) was 0.5.
